The text below walks through data of paper PMC2577326.

The term stoichiometry N denotes the number of molecules, sites or subunits per partner or assembly.

This test concerns the target PspGI-D138A selenomethionine variant (Pyrococcus GI-H). Nature of the test: crystal structure.

In turn, “PspGI-D138A selenomethionine variant (enzyme)” yielded a stoichiometry N of 2.
